Columns and labels:
anm1_human PRMT1 = anm1_human PRMT1 (UniProt Q99873)
G3BP1 = G3BP1 (UniProt Q13283)
UniProt Q13283, sequence (Q13283 whole entry, looked up): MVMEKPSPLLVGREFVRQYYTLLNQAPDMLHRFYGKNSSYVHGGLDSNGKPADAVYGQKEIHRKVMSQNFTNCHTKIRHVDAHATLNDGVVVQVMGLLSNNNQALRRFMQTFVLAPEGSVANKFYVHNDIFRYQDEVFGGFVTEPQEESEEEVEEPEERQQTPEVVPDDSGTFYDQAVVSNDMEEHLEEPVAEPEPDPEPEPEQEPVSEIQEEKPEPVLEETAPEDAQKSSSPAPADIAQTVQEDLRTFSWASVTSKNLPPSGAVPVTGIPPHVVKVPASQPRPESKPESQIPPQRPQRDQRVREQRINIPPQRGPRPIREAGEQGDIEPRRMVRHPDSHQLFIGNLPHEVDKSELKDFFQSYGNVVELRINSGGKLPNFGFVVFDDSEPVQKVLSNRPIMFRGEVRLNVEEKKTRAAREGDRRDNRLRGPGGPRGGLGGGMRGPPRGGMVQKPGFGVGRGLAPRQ

UniProt Q99873, sequence (Q99873 whole entry, looked up): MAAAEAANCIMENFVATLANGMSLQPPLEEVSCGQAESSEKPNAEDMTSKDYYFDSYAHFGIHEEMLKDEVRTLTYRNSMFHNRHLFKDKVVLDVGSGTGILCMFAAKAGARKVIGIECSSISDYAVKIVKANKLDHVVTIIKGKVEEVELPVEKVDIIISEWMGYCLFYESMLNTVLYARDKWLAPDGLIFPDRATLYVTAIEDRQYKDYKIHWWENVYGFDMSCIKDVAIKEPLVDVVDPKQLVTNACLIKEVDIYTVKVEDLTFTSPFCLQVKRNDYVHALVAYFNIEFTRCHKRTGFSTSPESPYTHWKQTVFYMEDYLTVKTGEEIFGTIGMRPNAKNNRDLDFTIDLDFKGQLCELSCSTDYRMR

Substance	effect of a mutation on the interaction (anm1_human PRMT1)	effect of a mutation on the interaction (G3BP1)
Nucleoprotein (SARS-CoV-2) (from UniProt P0DTC9) R68K	with no effect	–
Nucleoprotein (SARS-CoV-2) (from UniProt P0DTC9) R177K	–	with no effect
Nucleoprotein (SARS-CoV-2) (from UniProt P0DTC9) R203K	with no effect	–
